Measured values from patent US20260042850A1 (LOCKBODY THERAPEUTICS, published 2026).
Where a chain is given by its changes, count along the chain named. In names and notes the source's numbering stands.

B1: MH8 (antibody, IgG4, V domains shown)
VH: QVQLVQSGAEVKKPGASVKVSCKASGYTFTSYTMHWVRQAPGQGLEWMGIINPSGGSTSYAQKFQGRVTMTRDTSTSTVYMELSSLRSEDTAVYYCARQEITTEFDYWGQGTLVTVSS
VL: EIVLTQSPGTLSLSPGERATLSCRASQSVSSYAQSYLHWYQQKPGQAPRLLIYRGSTRETGIPDRFSGSGSGTDFTLTISRLEPEDFAVYYCQQSGSSPLTFGGGTKVEIK
B2: MH10 (antibody, IgG4, V domains shown)
VH: B1 VH with T33A, I50W
VL: B1 VL with Q34N, T60S, G96K, S98E
B3: h224G11 (humanized 224G11) (antibody, human IgG4, V domains shown)
VH: QVQLVQSGAEVKKPGASVKVSCKASGYIFTAYTMHWVRQAPGQGLEWMGWIKPNNGLANYAQKFQGRVTMTRDTSISTAYMELSRLRSDDTAVYYCARSEITTEFDYWGQGTLVTVSS
VL: DIVMTQSPDSLAVSLGERATINCKSSESVDSYANSFLHWYQQKPGQPPKLLIYRASTRESGVPDRFSGSGSGTDFTLTISSLQAEDVAVYYCQQSKEDPLTFGGGTKVEIK
notes: also called Humanized h224G11; 224G11 IgG4(S228P)
B4: MH7 (antibody, human IgG4, V domains shown)
VH: B1 VH
VL: B1 VL with Q34N, T60S, G96K, S98E
B5: MH7-3 (antibody, human IgG4, V domains shown)
VH: B1 VH
VL: B1 VL with G96K, S97E
B6: MH7-2 (antibody, human IgG4, V domains shown)
VH: B1 VH
VL: B1 VL with Q34N, G96K, S97E

These binders were tested against T1, cynomolgus monkey C-MET His tag, monomeric (cynomolgus monkey, UniProt A0M8R7 25-932 (Papio anubis entry)) (assay: SPR Biacore).
T1 construct: also called monomeric cyno C-MET; cyCMET
T1 sequence (A0M8R7 25-932 S170N/I621T): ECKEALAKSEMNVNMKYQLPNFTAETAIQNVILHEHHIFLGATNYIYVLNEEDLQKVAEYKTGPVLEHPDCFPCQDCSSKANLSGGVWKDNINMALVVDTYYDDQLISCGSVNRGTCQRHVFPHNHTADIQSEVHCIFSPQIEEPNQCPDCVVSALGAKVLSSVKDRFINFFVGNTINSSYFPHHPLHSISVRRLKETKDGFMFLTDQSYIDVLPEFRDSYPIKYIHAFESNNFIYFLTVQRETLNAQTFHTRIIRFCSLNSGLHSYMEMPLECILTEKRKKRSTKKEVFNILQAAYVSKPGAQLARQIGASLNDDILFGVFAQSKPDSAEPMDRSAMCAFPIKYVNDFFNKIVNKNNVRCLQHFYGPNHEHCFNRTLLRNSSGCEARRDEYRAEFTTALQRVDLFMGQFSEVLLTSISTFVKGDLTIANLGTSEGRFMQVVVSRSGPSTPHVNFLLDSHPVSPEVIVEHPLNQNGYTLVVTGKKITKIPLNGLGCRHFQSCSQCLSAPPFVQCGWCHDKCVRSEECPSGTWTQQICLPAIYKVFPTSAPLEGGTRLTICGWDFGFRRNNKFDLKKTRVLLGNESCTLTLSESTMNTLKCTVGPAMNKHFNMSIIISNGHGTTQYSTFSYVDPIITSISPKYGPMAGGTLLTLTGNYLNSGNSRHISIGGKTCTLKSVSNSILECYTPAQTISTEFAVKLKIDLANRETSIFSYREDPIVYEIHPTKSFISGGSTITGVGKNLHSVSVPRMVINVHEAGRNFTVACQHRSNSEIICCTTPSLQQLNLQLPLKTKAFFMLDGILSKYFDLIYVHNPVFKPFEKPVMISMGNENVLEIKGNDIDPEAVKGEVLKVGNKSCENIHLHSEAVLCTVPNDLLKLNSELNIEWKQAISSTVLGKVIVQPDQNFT
Method: (§1) Affinity (KD) of purified IgGs was determined via SPR with antigen in-solution on a Biacore® 3000 (GE). A mouse anti-human antibody (CH1 specific) was immobilized on a CM5 Sensor Chip to a level of 2000 RU in acetate buffer at pH 4.5 using amine coupling following the Wizard instructions for two channels. One channel was used for background signal correction. The standard running buffer HBS-EP pH 7.4 was used. Regeneration was performed with a single injection of 10 μl of 10 mM Glycine at pH 1.5 at 20 μl/minute. IgG samples were injected for 2 minutes at 50 nM at 30 μl/min followed by and off-rate of 60 seconds. The monomeric antigen (human C-MET His tagged or cynomolgus monkey C-MET His tag) was injected in two fold serial dilutions from 100 nM down to 6 nM, for 2 minutes at 30 μl/min followed by an off-rate of 300 seconds. The obtained sensorgrams were analysed using the Biacore® 3000 evaluation (BIAevaluation) software. The KD was calculated by simultaneous fitting of the association and dissociation phases to a 1:1 Langmuir binding model.

Row | Binder | fold loss of KD against MH7
1 | B1 | 10 to 20 fold

Each binder was assayed against T2, human C-MET His tagged, monomeric (human, UniProt P08581 25-932) (assay: SPR Biacore).
T2 construct: also called monomeric human C-MET; biotinylated human C-MET-His
T2 sequence (P08581 25-932): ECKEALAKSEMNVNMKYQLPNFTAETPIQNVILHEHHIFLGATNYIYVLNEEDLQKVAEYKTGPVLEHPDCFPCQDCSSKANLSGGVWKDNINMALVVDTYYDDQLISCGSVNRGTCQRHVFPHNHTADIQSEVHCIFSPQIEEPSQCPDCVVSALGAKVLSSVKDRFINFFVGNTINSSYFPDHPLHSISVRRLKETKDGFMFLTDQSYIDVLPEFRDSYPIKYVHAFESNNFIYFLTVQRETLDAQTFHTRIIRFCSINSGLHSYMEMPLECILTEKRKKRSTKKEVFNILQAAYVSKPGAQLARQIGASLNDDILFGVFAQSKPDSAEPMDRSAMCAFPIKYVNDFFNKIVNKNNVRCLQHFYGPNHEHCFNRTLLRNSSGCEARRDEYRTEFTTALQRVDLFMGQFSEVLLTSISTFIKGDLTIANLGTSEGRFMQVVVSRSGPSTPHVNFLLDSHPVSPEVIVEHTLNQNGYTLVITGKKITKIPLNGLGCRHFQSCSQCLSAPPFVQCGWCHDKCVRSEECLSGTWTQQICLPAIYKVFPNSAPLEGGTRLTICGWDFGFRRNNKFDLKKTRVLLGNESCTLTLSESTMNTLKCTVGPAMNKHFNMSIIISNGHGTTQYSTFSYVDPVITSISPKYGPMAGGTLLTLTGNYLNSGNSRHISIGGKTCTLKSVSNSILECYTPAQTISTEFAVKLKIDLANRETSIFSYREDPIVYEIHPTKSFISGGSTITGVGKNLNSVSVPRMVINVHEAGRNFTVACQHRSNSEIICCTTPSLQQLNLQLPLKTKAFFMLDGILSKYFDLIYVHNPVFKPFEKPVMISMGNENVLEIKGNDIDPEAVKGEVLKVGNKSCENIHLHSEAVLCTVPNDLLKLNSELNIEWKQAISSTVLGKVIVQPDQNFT
Method: as §1

Row | Binder | fold loss of KD against MH7 | fold reduction in binding affinity against MH4
2 | B1 | 10 to 20 fold | 
3 | B2 |  | ~2 fold

These binders were tested against T3, cynomolgus monkey C-MET on stably transfected CHO-K1 cells (cynomolgus monkey, UniProt A0M8R7 25-1381 (Papio anubis entry)) (assay: flow cytometry, C-MET CHO-K1 cells).
T3 construct: also called cycMET; cyno C-MET+ CHO-K1 cells
T3 sequence (A0M8R7 25-1381 S170N/I621T limits assumed): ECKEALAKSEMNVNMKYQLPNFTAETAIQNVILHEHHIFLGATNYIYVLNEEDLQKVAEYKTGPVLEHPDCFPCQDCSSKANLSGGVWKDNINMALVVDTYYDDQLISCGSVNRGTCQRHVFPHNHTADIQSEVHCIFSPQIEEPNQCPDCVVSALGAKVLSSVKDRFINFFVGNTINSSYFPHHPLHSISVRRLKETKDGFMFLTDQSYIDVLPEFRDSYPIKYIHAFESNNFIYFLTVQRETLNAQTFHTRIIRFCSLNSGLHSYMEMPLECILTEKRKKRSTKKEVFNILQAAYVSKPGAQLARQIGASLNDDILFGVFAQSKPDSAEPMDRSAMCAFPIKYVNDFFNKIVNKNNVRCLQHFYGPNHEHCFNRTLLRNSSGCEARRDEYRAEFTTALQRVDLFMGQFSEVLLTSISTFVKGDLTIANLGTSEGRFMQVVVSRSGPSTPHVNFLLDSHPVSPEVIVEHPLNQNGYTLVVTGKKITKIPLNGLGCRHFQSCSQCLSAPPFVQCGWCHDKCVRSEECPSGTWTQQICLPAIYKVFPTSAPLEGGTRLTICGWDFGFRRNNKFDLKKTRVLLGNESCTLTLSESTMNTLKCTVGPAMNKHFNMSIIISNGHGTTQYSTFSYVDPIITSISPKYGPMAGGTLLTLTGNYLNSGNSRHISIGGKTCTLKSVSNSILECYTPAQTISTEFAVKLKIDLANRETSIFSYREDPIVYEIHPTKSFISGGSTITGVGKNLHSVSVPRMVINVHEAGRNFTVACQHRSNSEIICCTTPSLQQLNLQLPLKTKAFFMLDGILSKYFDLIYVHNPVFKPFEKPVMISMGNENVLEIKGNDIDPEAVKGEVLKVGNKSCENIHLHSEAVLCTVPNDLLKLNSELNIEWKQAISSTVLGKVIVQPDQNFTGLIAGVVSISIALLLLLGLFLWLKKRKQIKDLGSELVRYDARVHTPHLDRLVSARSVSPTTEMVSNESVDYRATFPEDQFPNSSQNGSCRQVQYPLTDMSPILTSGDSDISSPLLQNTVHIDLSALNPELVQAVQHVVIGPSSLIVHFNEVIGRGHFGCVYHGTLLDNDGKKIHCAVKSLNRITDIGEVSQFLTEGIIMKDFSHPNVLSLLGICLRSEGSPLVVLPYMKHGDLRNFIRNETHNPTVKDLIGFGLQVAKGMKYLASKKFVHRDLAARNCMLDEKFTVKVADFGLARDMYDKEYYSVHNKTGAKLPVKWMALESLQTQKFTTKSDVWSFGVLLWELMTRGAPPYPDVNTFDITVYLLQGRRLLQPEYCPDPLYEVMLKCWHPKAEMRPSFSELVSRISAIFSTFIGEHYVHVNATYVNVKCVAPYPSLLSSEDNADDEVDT
Method: (§2) Purified IgGs were tested in FACs for binding to human and cyno C-MET expressed on CHO-K1 stable cell lines and CHO-K1 wild-type cells. The IgG samples were titrated in three-fold serial dilutions starting at 500 nM to 0.08 nM. Binding of IgGs was detected with a mouse anti-human IgG conjugated to FITC. Results were analyzed by examining the Mean Fluorescence Intensity (MFI) of 10000 cells per sample in the BL-1 channel detector of a flow cytometer (Attune™ NxT Acoustic Focusing Cytometer, Invitrogen/ThermoFisher Scientific).

Row | Binder | EC50
4 | B3 | 0.82 nM
5 | B4 | 0.54 nM
6 | B1 | 0.57 nM
7 | B2 | 0.46 nM

These binders were tested against T4, human C-MET on stably transfected CHO-K1 cells (human, UniProt P08581 25-1390) (assay: flow cytometry, C-MET CHO-K1 cells).
T4 construct: also called hucMET; human C-MET+ CHO-K1 cells
T4 sequence (P08581 25-1390 limits assumed): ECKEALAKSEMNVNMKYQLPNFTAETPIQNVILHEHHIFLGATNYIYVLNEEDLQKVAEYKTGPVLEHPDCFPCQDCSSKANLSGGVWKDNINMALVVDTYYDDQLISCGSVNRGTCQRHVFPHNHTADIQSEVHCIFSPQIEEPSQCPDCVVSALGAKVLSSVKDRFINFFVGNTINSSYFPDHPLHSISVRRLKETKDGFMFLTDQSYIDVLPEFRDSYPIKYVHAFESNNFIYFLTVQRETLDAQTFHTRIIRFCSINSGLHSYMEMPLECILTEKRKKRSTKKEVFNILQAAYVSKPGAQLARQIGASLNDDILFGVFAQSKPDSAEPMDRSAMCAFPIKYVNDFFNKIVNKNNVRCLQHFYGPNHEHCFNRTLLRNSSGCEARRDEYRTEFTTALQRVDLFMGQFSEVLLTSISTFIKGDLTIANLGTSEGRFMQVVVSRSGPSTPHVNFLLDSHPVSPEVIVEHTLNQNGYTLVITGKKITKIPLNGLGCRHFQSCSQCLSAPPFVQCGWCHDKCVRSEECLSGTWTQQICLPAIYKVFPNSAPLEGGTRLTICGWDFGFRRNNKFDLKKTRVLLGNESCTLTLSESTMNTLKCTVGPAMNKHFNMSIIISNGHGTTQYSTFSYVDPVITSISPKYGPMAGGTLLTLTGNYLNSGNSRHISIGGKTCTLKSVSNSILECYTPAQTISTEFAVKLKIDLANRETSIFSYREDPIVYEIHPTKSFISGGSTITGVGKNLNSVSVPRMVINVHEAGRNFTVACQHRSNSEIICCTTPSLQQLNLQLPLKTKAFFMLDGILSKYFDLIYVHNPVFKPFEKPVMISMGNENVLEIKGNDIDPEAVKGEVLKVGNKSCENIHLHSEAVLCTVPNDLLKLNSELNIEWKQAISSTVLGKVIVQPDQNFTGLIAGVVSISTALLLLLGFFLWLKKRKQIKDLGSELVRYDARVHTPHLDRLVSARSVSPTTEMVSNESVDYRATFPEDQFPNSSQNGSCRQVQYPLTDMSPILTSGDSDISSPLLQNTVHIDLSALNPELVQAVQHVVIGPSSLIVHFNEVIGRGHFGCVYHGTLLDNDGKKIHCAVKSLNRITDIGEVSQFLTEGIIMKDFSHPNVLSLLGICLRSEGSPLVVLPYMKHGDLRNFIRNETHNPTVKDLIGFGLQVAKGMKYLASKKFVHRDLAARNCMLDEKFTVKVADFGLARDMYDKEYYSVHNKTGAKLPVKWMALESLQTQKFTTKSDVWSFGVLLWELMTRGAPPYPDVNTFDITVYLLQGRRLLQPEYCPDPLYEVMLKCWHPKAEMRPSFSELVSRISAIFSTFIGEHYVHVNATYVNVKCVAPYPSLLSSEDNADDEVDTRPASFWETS
Method: as §2

Row | Binder | EC50
8 | B3 | 6.83 nM
9 | B4 | 1.14 nM
10 | B1 | 1.24 nM
11 | B2 | 2.14 nM

Each binder was assayed against T2, human C-MET His tagged, monomeric (assay: Alphascreen epitope competition in solution: varied IgG4(S228P) against 224G11 IgG4(S228P) binding to biotinylated human C-MET, CPS (crosstalk-corrected)).
Method: FIG. 7. Epitope competition analysis of IgG4(S228P) proteins in Alphascreen. Anti-Humanized h224G11, Grafted clone (Graft) and clones 08G07, MH7, MH7-1, MH7-2, MH7-3 in human IgG4(S228P) format were titrated (in nM) in an epitope competition assay using Alphascreen technology. In this assay, library-derived and designer IgGs were analysed for their retention of the parental 224G11 epitope by competing for 224G11 IgG4(S228P) binding to human C-MET protein, in solution.
The AlphaScreen assay (Perkin Elmer) was performed in a 25 μl final volume in 384-well white microtiter plates (Greiner). The reaction buffer contained 1×PBS pH 7.3 (Oxoid, Cat. nr. BR0014G) and 0.05% (v/v) Tween® 20 (Sigma, Cat. nr. P9416). Purified IgG samples were titrated in three fold serial dilutions starting at 50 nM final concentration and incubated with biotinylated human C-MET-His (Acrobiosystems) at 1 nM final concentration for 20 minutes at room temperature. The parental IgG and the anti-human IgG4(S228P) Acceptor beads at were added and the mix was incubated for 1 hour at room temperature. Followed by addition of the Streptavidin Donor beads and incubation for 30 minutes at room temperature. The emission of light was measured in the EnVision multilabel plate reader (Perkin Elmer) and analysed using the EnVision manager software. Values were reported as Counts Per Second (CPS) and corrected for crosstalk. […]

Row | Binder | IC50 (read off the curve)
12 | B3 | ~0.2 nM
13 | B5 | ~0.2 nM

These binders were tested against T1, cynomolgus monkey C-MET His tag, … (assay: SPR Biacore, IgG captured, monomeric C-MET-His analyte).
Method: as §1

Row | Binder | Kd | koff | kon
14 | B3 | 0.46 nM | 0.00011 s⁻¹ | 250000 M⁻¹ s⁻¹
15 | B4 | 0.19 nM | 5.2e-05 s⁻¹ | 270000 M⁻¹ s⁻¹
16 | B5 | 1.03 nM | 0.000174 s⁻¹ | 168000 M⁻¹ s⁻¹
17 | B6 | 0.87 nM | 0.000159 s⁻¹ | 183000 M⁻¹ s⁻¹
18 | B1 | 1.3 nM | 0.00021 s⁻¹ | 160000 M⁻¹ s⁻¹
19 | B2 | 0.2 nM | 3.6e-05 s⁻¹ | 180000 M⁻¹ s⁻¹

The binders below were run against T2, human C-MET His tagged, monomeric in the same assay as above.
Method: as §1

Row | Binder | Kd | koff | kon
20 | B3 | 0.47 nM | 4.2e-05 s⁻¹ | 90000 M⁻¹ s⁻¹
21 | B4 | 0.3 nM | 2.9e-05 s⁻¹ | 98000 M⁻¹ s⁻¹
22 | B5 | 1.31 nM | 0.000123 s⁻¹ | 94400 M⁻¹ s⁻¹
23 | B6 | 2.12 nM | 0.000198 s⁻¹ | 93200 M⁻¹ s⁻¹
24 | B1 | 2.2 nM | 0.00015 s⁻¹ | 66000 M⁻¹ s⁻¹
25 | B2 | 0.63 nM | 4.4e-05 s⁻¹ | 71000 M⁻¹ s⁻¹

The binders below were run against T3, cynomolgus monkey C-MET on stably … (assay: flow cytometry on cyno C-MET-transfected CHO-K1 cells, IgG4(S228P), MFI).
Method: FIG. 8A-FIG. 8C. Flow cytometric binding to human and cyno C-MET+ CHO-K1 cells for library-derived and primary designer leads. Humanized h224G11, Grafted clone (Graft) and clones 08G07, MH7, MH7-1, MH7-2, MH7-3 in human IgG4(S228P) format were examined for specific binding on human C-MET-transfected (FIG. 8A), cyno C-MET-transfected (FIG. 8B) and untransfected (FIG. 8C) CHO-K1 cells. IgGs were tested at concentrations ranging from 500-0.08 nM. Concentration-dependent binding was observed against both human and cyno cell lines for all C-MET-specific antibodies but not isotype control IgG4.
as §2

Row | Binder | EC50 (read off the curve)
26 | B3 | ~0.7 nM
27 | B6 | ~0.5 nM

What follows are binders tested against T5, human C-MET human Fc tagged recombinant protein (human, UniProt P08581 25-932) (assay: direct titration ELISA on coated human C-MET-Fc, IgG4(S228P), OD 450 nm).
T5 construct: also called human C-MET-Fc; huCMET
T5 sequence (P08581 25-932 limits assumed): as the sequence (P08581 25-932) above
Source text: (§3) FIG. 6A-FIG. 6B. Direct titration ELISA for IgG binding to human and cyno C-MET-Fc proteins. Humanized h224G11, Grafted clone (Graft) and clones 08G07, MH7, MH7-1, MH7-2, MH7-3 in human IgG4(S228P) format were titrated (in nM) in a direct binding ELISA against human (FIG. 6A) and cyno (FIG. 6B) C-MET-Fc proteins.
(§4) Binding and cross-reactivity of the lead panel to the recombinant proteins was initially assessed by binding ELISA. The human C-MET human Fc tagged recombinant protein and the cynomolgus monkey C-MET human Fc tagged recombinant protein were coated to the surface of MaxiSorp™ flat-bottom 96 well plate at 1 μg/ml. The purified IgG samples were titrated in two fold serial dilutions starting from 500 nM to 0.98 nM and allowed to bind to the coated antigens. The Fabs were detected using mouse anti-c-myc antibody followed by donkey anti-mouse IgG conjugated to horseradish peroxidase. The IgGs were detected using the mouse anti-human IgG conjugated to horseradish peroxidase. Binding signals were visualized with 3,3′,5,5′-Tetramethylbenzidine Substrate Solution (TMB) and the absorbance measured at 450 nm. IgG binding analysis via ELISA on negatively charged biomolecular surfaces to calculate off-target binding and PK risk were performed as previously described (see Avery et al., 2018, MAbs 10 (2), 244-255).

Row | Binder | EC50 (read off the curve)
28 | B3 | ~0.3 nM
29 | B6 | ~0.3 nM

Each binder was assayed against T6, cynomolgus monkey C-MET human Fc tagged recombinant protein (cynomolgus monkey, UniProt A0M8R7 25-932 (Papio anubis entry), limits assumed) (assay: direct titration ELISA on coated cyno C-MET-Fc, IgG4(S228P), OD 450 nm).
T6 construct: also called cyno C-MET-Fc; cyCMET
T6 sequence (A0M8R7 25-932 S170N/I621T limits assumed): as the sequence (A0M8R7 25-932 S170N/I621T) above
Source text: as §3, §4

Row | Binder | EC50 (read off the curve)
30 | B3 | ~0.2 nM
31 | B6 | ~0.2 nM

Target: T3, cynomolgus monkey C-MET on stably …
Test: flow cytometry, C-MET CHO-K1 cells
Remark: another data set of the same source
Method: as §2
(§5) Antibodies to C-MET were analysed for concentration-dependent binding at the cell surface via flow cytometry. CHO-K1 cells were stably transfected with either human or cyno C-MET full-length cDNAs. Anti-C-MET IgGs and an isotype control IgG4(S228P) were then all tested in IgG4(S228P) format, over a concentration range of 500-0.08 nM for binding to human (FIG. 5A) and cyno (FIG. 5B) CHO-K1 cells.

Row | Binder | maximum MFI, fold over Isotype IgG4 background
32 | B3 | > 10 fold
33 | B4 | > 10 fold
34 | B5 | > 10 fold
35 | B6 | > 10 fold
36 | B1 | > 10 fold
37 | B2 | > 10 fold

Target: T4, human C-MET on stably transfected …
Test: flow cytometry, C-MET CHO-K1 cells
Remark: another data set of the same source
Method: as §2, §5

Row | Binder | maximum MFI, fold over Isotype IgG4 background
38 | B3 | > 10 fold
39 | B4 | > 10 fold
40 | B5 | > 10 fold
41 | B6 | > 10 fold
42 | B1 | > 10 fold
43 | B2 | > 10 fold

What follows are binders tested against T1, cynomolgus monkey C-MET His tag, … (assay: SPR Biacore, monomeric cyno against monomeric human C-MET).
Method: as §1

Row | Binder | cyno C-MET affinity, fold of the human C-MET affinity
44 | B4 | ≤ 2 fold

What follows are binders tested against T7, Insulin (assay: polyreactivity ELISA on insulin).
T7 construct: Coated surface of the polyreactivity (development risk) ELISA
T7 sequence (P01308 25-54, chain 1 of 2): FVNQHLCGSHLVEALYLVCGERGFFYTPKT
T7 sequence (P01308 90-110, chain 2 of 2): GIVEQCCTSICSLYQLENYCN
Parameters: scale not given here

Row | Binder | reactivity score
45 | B3 | 1
46 | B4 | 1
47 | B5 | 1
48 | B6 | 1
